Test results as given in patent US20020192214A1.

Biological target: human eosinophil eotaxin receptor CC CKR3, stably expressed in AML14.3D10 cells (human) (UniProt P51677)
Test: cell-based or functional assay

Chain of human eosinophil eotaxin receptor CC CKR3, stably expressed in AML14.3D10 cells (human) (P51677 whole entry): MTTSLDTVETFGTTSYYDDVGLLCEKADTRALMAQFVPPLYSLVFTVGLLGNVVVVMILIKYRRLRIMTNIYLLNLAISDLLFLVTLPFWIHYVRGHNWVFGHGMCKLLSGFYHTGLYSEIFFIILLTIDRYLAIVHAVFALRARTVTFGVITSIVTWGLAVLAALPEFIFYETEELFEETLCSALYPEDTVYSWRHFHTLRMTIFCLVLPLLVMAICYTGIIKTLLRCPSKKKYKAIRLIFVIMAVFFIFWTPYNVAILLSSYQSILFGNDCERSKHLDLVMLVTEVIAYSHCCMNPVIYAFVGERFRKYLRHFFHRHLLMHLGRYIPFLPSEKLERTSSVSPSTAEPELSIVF

Ca^2+-flux (intracellular Ca^2+ levels): > 1 µM
Substance: IL-8 (from UniProt P10145 28-99) (ligand)
